# In patent publication US20210122788A1:
# Experiments:
# human BTLA Fc (human) [1] = biological target: human BTLA Fc (human) (UniProt Q7Z6A9); experiment: SPR, BTLA Fc immobilised on CM5, bivalent fit
# human BTLA Fc (human) [2] = biological target: human BTLA Fc (human) (UniProt Q7Z6A9); experiment: SPR, BTLA Fc immobilised on CM5, monovalent (Langmuir) fit
substance,measurement,setting,value
rhesus CMV UL144 Fc (Fc fusion),ka1 (bivalent analysis),human BTLA Fc (human) [1],16600 M⁻¹ s⁻¹
same,kd1 (bivalent analysis),human BTLA Fc (human) [1],0.031 s⁻¹
same,kd2 (bivalent analysis),human BTLA Fc (human) [1],0.129 s⁻¹
same,Kd,human BTLA Fc (human) [2],1300 nM
same,koff,human BTLA Fc (human) [2],0.0295 s⁻¹
same,kon,human BTLA Fc (human) [2],22800 M⁻¹ s⁻¹
